Data published in US20250297215A1, “METHOD FOR PRODUCING MILK LIKE PRODUCTS” (SOCIETE DES PRODUITS NESTLE S.A., priority 2021, published 2025).

Key:
iPSC cells = assay: RNA expression of ESRRA, KRT14 and MUC1 at end-stage of 3D-mammary gland differentiation; assay type: cell-based, human; conditions: day 30, 33 and 35, compared to the control sample
Experimental: The effect of BMP4 at the end-stage of 3D-mammary gland differentiation of iPSC cells was assessed using estrogen related receptor alpha (ESRRA), Keratin 14 (KRT14) and MUC1 for their expression profiles.

[1] = test system: iPSCs derived mammary gland organoids; assay: Flow cytometry of progenitor markers, BMP4 and RA single or combined, 42 days and 31 days protocols; assay type: cell-based, human; conditions: 20 ng/ml BMP4, 1 μM RA, single or combination, compared to the control condition
Description: In order to generate milk bioactives that closely resemble those found in human breast milk, different methods using bone morphogenetic protein 4 (BMP4) and retinoic acid (RA) in 42 days and 31 days as a shortened time-course protocol were established in a 3D-platform using iPSCs derived mammary gland organoids as a biomimetic model of the human mammary gland (FIG. 9).

[2] = test system: human-induced pluripotent stem cell (hiPSC) line 603; assay: Flow cytometry quantification of mammary gland progenitor markers after BMP4 treatment, 3D-organoid setting; assay type: cell-based; conditions: 20 ng/ml BMP4, day 0 to day 3, flow cytometry
Experimental: (§1) Methods: The human-induced pluripotent stem cell (hiPSC) line 603 was purchased from Fujifilm Cellular Dynamics, Inc (FCDI) and used for the 3D-differentiaion of mammary gland progenitors. Briefly, 5.5 million dissociated iPSCs were plated in the 6 well-plates (ultra-low attachment) containing 4.5 mL aggregation media using a planar shaker platform (set at 95 RPM). BMP4 (314-BP-050, Bio-Techne AG) at different concentrations was added to the culture media between day 0 and day 3.

[3] = test system: human-induced pluripotent stem cell (hiPSC) line 603; assay: Nanostring RNA expression of lineage markers after BMP4 treatment, 3D-organoid setting; assay type: cell-based
Experimental: as §1
Results: iPSC cells were tested with different concentrations of BMP4 to induce non-neural ectodermal differentiation (FIG. 6a, b). […] Expression of human TFAP2A and TFAP2C (AP2 Gamma) as predominant non-neural ectodermal markers were increased at day 10 of differentiation using Nanostring analysis compared to the control sample (FIG. 6g-h). Moreover, expression levels of human specific neural ectoderm markers, such as paired box gene 6 (PAX6), orthodenticle homeobox 2 (OTX2) and SRY-box transcription factor 11 (SOX11) were decreased during differentiation (FIG. 6i-k).

[4] = test system: iPS-derived mammary-gland cells; assay: LC-MS/MS targeted proteomic analysis of osteopontin protein secretion; assay type: cell-based, human; conditions: also detected with control differentiation method
Description: Human osteopontin peptides—GDSVVYGLR and -YPDAVATWLNPDPSQK were specifically detected in the cell culture supernatant by LC-MS/MS (FIG. 10).
Osteopontin protein secretion was detected in the media of cultures of iPS-derived mammary-gland cells using control differentiation method, or with bone morphogenetic protein 4 (BMP4), retinoic acid (RA) and in the combination of the two factors.

B1: BMP4: bone morphogenetic protein 4 (314-BP-050, Bio-Techne AG), added to the culture media (protein, UniProt P12644 293-408, looked up)
Bone morphogenetic protein 4: SPKHHSQRARKKNKNCRRHSLYVDFSDVGWNDWIVAPPGYQAFYCHGDCPFPLADHLNSTNHAIVQTLVNSVNSSIPKACCVPTELSAISMLYLDEYDKVVLKNYQEMVVEGCGCR
RNA expression levels of ESRRA, KRT14 and MUC1 (iPSC cells): increased
expression of mammary gland progenitor markers EpCAM, CD49f, MUC1 and GATA3 (induced or maintained) [1]: can induce the expression
expression of mammary gland progenitor markers EpCAM (CD326), CD49f, MUC1 (CD227) and GATA3 [2]: significantly induced
expression of luminal marker KRT18 and osteopontin (OPN) ([3]; RNA expression level): can induce the expression
expression of human TFAP2A and TFAP2C (non-neural ectodermal markers) ([3]; day 10 of differentiation, compared to the control sample): increased
expression levels of neural ectoderm markers PAX6, OTX2 and SOX11 ([3]; during differentiation): decreased
osteopontin protein secretion in culture media [4]: detected
